The results in this text go back to patent publication US20040197818A1 (UNIVERSITY OF UTAH RESEARCH FOUNDATION, published 2004).

The target in assay [1] is T1, HERG (human, UniProt Q12809 1-1159). Kind of assay: cell-based or functional assay.
In assay [2] the target is T1, HERG. Description: cell-based or functional assay. The source holds these as a separate data set.

Substitutions are numbered along the chain they refer to. Names may count otherwise.

T1 sequence (Q12809 whole entry): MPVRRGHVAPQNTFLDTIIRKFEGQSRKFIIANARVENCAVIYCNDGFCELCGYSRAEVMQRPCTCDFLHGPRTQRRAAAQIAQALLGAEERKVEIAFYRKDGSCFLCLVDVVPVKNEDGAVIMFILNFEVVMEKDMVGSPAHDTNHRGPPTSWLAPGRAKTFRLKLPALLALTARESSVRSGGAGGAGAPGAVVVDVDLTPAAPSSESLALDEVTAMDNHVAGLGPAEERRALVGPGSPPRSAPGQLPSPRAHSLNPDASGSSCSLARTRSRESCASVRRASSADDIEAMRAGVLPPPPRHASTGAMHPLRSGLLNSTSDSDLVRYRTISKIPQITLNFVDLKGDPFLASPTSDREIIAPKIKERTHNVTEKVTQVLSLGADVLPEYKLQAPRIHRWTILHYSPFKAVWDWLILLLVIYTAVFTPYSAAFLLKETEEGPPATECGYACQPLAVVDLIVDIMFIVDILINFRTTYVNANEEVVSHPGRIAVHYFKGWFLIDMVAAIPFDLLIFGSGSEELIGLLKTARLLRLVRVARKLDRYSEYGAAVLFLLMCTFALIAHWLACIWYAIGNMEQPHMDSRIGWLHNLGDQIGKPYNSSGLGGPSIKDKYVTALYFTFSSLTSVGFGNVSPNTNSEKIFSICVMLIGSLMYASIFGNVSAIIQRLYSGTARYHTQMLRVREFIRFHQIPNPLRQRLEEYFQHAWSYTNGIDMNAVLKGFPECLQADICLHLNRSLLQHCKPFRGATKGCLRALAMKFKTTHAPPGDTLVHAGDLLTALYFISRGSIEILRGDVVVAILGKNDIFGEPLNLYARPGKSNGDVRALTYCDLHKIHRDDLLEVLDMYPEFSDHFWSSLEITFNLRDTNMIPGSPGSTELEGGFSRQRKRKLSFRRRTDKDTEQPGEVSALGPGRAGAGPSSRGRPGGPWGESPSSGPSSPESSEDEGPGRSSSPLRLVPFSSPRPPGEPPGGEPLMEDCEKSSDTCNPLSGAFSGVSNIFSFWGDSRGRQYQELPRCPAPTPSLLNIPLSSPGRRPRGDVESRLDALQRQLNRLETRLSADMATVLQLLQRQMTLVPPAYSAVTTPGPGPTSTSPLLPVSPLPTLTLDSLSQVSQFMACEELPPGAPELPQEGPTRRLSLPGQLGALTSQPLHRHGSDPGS

B1: wild type human MiRP1 (other)
chain: MSTLSNFTQTLEDVFRRIFITYMDNWRQNTTAEQEALQAKVDAENFYYVILYLMVMIGMFSFIIVAILVSTVKSKRREHSNDPYHQYIVEDWQEKYKSQILNLEESKATIHENIGAAGFKMSP
On to B1, for which, in the assay with HERG [1], the “activation V1/2” value is -21 mV, the “deactivation fast time constant” value is 80, the “deactivation ratio If/(Is + If)” value came out at 0.82 and the “deactivation slow time constant” value was found to be 483. The “deactivation rate at -120 mV, CHO cells” value with HERG [2] was around 3 fold.

B2: M54T-hMiRP1 (other)
chain: B1 chain with M54T
Turning to B2, in the assay with HERG [1], the “activation V1/2” value is -21 mV, the “deactivation fast time constant” value is 37, the “deactivation ratio If/(Is + If)” value was determined as 0.81 and the “deactivation slow time constant” value amounted to 266. Also, the “deactivation rate against channels with wild type hMiRP1” value with HERG [2] is around 3 fold.

B3: T8A-hMiRP1 (other)
chain: B1 chain with T8A
As to B3, in the assay with HERG [1], the “activation V1/2” value is -29 mV, the “deactivation fast time constant” value was determined as 100, the “deactivation ratio If/(Is + If)” value stood at 0.83 and the “deactivation slow time constant” value came out at 590.

B4: Q9E-hMiRP1 (other)
chain: B1 chain with Q9E
As for B4, in the assay with HERG [1], the “activation V1/2” value is -12 mV, the “deactivation fast time constant” value turned out to be 100, the “deactivation ratio If/(Is + If)” value turned out to be 0.8 and the “deactivation slow time constant” value came to 750.

B5: rMiRP1 (other)
chain: MTTLANLTQTLEDAFKKVFITYMDSWRRNTTAEQQALQARVDAENFYYVILYLMVMIGMFAFIVVAILVSTVKSKRREHSQDPYHQYIVEDWQQKYRSQILHLEDSKATIHENLGATGFTVSP
modifications: 35S-methionine label in the in vitro binding assay
As to B5, in the assay with HERG [2], the “deactivation rate, oocytes” value stood at 7 fold and the “deactivation rate, plasma-like ionic conditions, whole-cell” value is around 2 fold.
